Article PMC5897841, “Development of a multipurpose scaffold for the display of peptide loops” (Protein Engineering, Design and Selection, 2017)
One block for each substance: values may come before it.

Legend:
[1] = target: double His-tagged RAD-TPX2_((7–43)) D11A (Pyrococcus furiosus | human) (UniProt O74036); assay: BLI; Octet RED96, Anti-Penta-HIS biosensors loaded with double His-tagged RAD-TPX2 proteins (1 μM), untagged Aurora A wild type 0-500 or 5000 nM as analyte; 50 mM HEPES pH 7.4, 500 mM NaCl, 100 mM Mg(CH3COO)2, 0.5 mM ATP, 0.5 mM TCEP, 0.05% P20; 1:1 model
[2] = target: double His-tagged RAD-TPX2_((7–43)) F16A (Pyrococcus furiosus | human) (UniProt O74036); assay: as above
[3] = target: double His-tagged RAD-TPX2_((7–43)) F19A (Pyrococcus furiosus | human) (UniProt O74036); assay: as above
[4] = target: double His-tagged RAD-TPX2_((7–43)) F35A (Pyrococcus furiosus | human) (UniProt O74036); assay: as above
[5] = target: double His-tagged RAD-TPX2_((7–43)) W34A (Pyrococcus furiosus | human) (UniProt O74036); assay: as above
[6] = target: double His-tagged RAD-TPX2_((7–43)) Y10A (Pyrococcus furiosus | human) (UniProt O74036); assay: as above
[7] = target: double His-tagged RAD-TPX2_((7–43)) Y8A (Pyrococcus furiosus | human) (UniProt O74036); assay: as above
[8] = target: double His-tagged RAD-TPX2_((7–43)), wild-type TPX2 sequence (Pyrococcus furiosus | human) (UniProt O74036); assay: as above
[9] = target: Alexa Fluor 488-labeled cRAD-CK2β_((186–200)) (Pyrococcus furiosus | human) (UniProt O74036); assay: fluorescence polarisation; fluorescence anisotropy, direct titration of kinase (CK2α 2 nM-2 μM; Aurora A D274N 2 nM-1.5 μM) into labelled peptide or display protein; 10 mM HEPES pH 7.4, 500 mM NaCl, 1 mM DTT, 0.05% P20; room temperature; 1:1 model
[10] = target: Fluorescein-CK2β_((186–200)) peptide (human) (UniProt P67870); assay: as above
[11] = target: synthetic linear CK2β_((186–200)) peptide with C-terminal Gly-Cys (human) (UniProt P67870); assay: SPR; Biacore T100, CM5, peptides or cRAD display proteins immobilised through their cysteine (240-400 RU), kinase as analyte 2.5 nM-2.5 μM, 25°C, 10 mM HEPES pH 7.4, 500 mM NaCl, 0.05% P20; 1:1 steady-state affinity model; CK2α data analysed at 200 s post-injection
CK2α kinase (human) [12] = target: CK2α kinase (human) (UniProt P68400); assay: SEC; analytical Superdex 75 5/150, 20 mM HEPES pH 7.5, 500 mM NaCl; single proteins and equimolar mixture; fractions checked by SDS-PAGE
Chain of CK2α kinase (human) (P68400 2-329): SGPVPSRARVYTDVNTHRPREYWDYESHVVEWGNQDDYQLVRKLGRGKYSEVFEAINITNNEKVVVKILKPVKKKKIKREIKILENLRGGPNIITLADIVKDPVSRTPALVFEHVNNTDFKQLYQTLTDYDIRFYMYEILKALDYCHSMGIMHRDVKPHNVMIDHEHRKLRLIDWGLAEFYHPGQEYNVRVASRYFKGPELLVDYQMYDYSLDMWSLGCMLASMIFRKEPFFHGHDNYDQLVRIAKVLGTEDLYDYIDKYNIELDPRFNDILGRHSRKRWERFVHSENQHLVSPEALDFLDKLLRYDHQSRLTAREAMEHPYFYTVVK

CK2α kinase (human) [13] = target: CK2α kinase (human) (UniProt P68400); assay: AUC; sedimentation velocity, absorbance at 280 nm, 50 000 rpm, 20°C, 20 mM HEPES pH 7.5, 500 mM NaCl; single proteins and mixtures (5 μM each CK2α and RAD-CK2β; 10 μM each Aurora A D274N and RAD-TPX2)
CK2α kinase (human) [14] = target: CK2α kinase (human) (UniProt P68400); assay: ITC; itc200, 25°C, 10 mM HEPES pH 7.4, 500 mM NaCl, 0.05% P20; 50 μM titrant into 5 μM Aurora A D274N, 100 μM CK2β peptide or RAD-CK2β into 10 μM CK2α; single-site model
[15] = target: Aurora A_(D274N) kinase domain (human) (UniProt O14965); assay: as above
Chain of Aurora A_(D274N) kinase domain (human) (O14965 122-403 D274N): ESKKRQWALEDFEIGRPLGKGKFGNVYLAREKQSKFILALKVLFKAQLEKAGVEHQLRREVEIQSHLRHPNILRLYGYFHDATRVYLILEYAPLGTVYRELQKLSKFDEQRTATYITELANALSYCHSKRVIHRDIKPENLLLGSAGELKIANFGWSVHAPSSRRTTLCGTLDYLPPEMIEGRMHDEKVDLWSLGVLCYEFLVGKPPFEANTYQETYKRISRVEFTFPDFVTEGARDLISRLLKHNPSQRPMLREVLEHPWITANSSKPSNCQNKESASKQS

[16] = target: Aurora A wild-type kinase domain (untagged) (human); assay: fluorescence polarisation; fluorescence anisotropy competition: 10 nM Alexa Fluor 488-TPX2 peptide and 50 nM Aurora A wild type, RAD-TPX2 variants as competitors 195 nM-25 μM, 25°C, HEPES pH 7.4, 0.1 M Mg(CH3COO)2, 100 mM NaCl, 1 mM ATP, 1 mM DTT, 0.01% P20; Ki from the equation of Wang (1995), given as KD in Table II
Chain of Aurora A wild-type kinase domain (untagged) (human) (O14965 133-383): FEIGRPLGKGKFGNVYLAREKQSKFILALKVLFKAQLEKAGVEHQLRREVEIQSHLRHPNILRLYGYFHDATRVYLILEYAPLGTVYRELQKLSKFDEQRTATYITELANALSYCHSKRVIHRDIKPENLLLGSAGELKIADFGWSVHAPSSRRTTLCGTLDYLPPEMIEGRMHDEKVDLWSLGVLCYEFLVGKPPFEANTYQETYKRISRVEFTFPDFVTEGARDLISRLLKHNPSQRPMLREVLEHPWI

Chain of CK2α kinase (P68400 2-329): as the sequence (P68400 2-329) above

Substance: Aurora A wild-type kinase domain (untagged) (domain or fragment)
Kd [1]: 1100 nM
Kd [2]: 820 nM
Kd [3]: 870 nM
Kd [4]: 1100 nM
Kd [5]: 840 nM
Kd [6]: 11000 nM
Kd [7]: 2800 nM
Kd [8]: 46 nM

Substance: CK2α kinase (from UniProt P68400 2-329) (enzyme)
Kd [9]: 139 nM
Kd [10]: 348 nM
Kd [11]: 407 nM

Substance: RAD-CK2β_((186–200)) display protein (as used in AUC and SEC) (from UniProt O74036 108-287; P67870 186-200; O74036 302-349)
stoichiometry N (CK2α kinase (human) [12]): 1
stoichiometry N (CK2α kinase (human) [13]): 1

Substance: cRAD-TPX2_((7–43)) display protein (from UniProt O74036 108-287; O74036 302-349)
Kd [15]: 147 nM

Substance: double His-tagged RAD-TPX2_((7–43)) Y8A (from UniProt O74036 108-287; Q9ULW0 7-43; O74036 302-349)
Kd [16]: > 3200 nM

Substance: double His-tagged RAD-TPX2_((7–43)), wild-type TPX2 sequence (from UniProt O74036 108-287; O74036 302-349)
Kd [16]: 2 nM

Substance: synthetic linear CK2β_((186–200)) peptide (from UniProt P67870 186-200)
Kd (CK2α kinase (human) [14]): 138 nM

Continued, values first:

Kd (CK2α kinase (human) [14]): 140 nM
Substance: cRAD-CK2β_((186–200)) display protein (from UniProt O74036 108-287; P67870 186-200; O74036 302-349)

Kd [16]: > 3200 nM
Substance: double His-tagged RAD-TPX2_((7–43)) D11A (from UniProt O74036 108-287; Q9ULW0 7-43; O74036 302-349)

Kd [16]: 300 nM
Substance: double His-tagged RAD-TPX2_((7–43)) F16A (from UniProt O74036 108-287; Q9ULW0 7-43; O74036 302-349)

Kd [16]: 1770 nM
Substance: double His-tagged RAD-TPX2_((7–43)) F19A (from UniProt O74036 108-287; Q9ULW0 7-43; O74036 302-349)

Kd [16]: 1110 nM
Substance: double His-tagged RAD-TPX2_((7–43)) F35A (from UniProt O74036 108-287; Q9ULW0 7-43; O74036 302-349)

Kd [16]: 1170 nM
Substance: double His-tagged RAD-TPX2_((7–43)) W34A (from UniProt O74036 108-287; Q9ULW0 7-43; O74036 302-349)

Kd [16]: > 3200 nM
Substance: double His-tagged RAD-TPX2_((7–43)) Y10A (from UniProt O74036 108-287; Q9ULW0 7-43; O74036 302-349)
